4 molecules from paper PMC9482650, “Quantitative fragmentomics allow affinity mapping of interactomes” (Nature Communications, 2022) can be followed below.

Positions count from the first letter of the chain named.

Some targets named below: MAST1, Q9Y2H9; IL16_1, Q14005; DLG5_1, Q8TDM6; Inadl_4, Q8NI35; IL16_3, Q14005; NHERF2_2, Q15599; DLG2_3, Q15700; GRIP2_5, Q9C0E4; PARD3_3, Q8TEW0; GRID2IP_2, A4D2P6.
Common to all, as to test: holdup assay
Design in all cases: key: below the threshold = too weak to quantify, mostly under pKd 3.1 to 4

The target of the next assay is T1, DFNB31_1, Q9P202.
T1 sequence (Q9P202 135-233, limits assumed, looked up): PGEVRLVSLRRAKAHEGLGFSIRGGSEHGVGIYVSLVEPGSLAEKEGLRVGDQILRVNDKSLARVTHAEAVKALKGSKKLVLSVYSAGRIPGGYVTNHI

A further assay concerns the target T2, MPP6, Q9NZW5.
T2 sequence (Q9NZW5 125-219, limits assumed, looked up): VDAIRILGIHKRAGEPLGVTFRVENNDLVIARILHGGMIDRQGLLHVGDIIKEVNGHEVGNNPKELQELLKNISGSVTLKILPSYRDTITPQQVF

For another assay, the target named is T3, HTRA4, P83105.
T3 sequence (P83105 378-476, limits assumed, looked up): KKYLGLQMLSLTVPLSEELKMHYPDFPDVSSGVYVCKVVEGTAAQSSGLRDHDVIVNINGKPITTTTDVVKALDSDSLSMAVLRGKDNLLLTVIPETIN

For a further assay, the target named is T4, GRIP1_3, Q9Y3R0.
T4 sequence (Q9Y3R0 247-346, limits assumed, looked up): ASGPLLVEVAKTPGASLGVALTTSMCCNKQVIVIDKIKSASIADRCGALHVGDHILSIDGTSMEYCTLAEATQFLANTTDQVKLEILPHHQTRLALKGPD

A further assay has as its target T5, APBA1_1, Q02410.
T5 sequence (Q02410 651-752, limits assumed, looked up): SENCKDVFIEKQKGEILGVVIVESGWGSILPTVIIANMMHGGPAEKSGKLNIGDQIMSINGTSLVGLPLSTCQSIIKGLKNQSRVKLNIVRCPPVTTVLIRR

For another assay, the target named is T6, SNTG2, Q9NY99.
T6 sequence (Q9NY99 68-166, limits assumed, looked up): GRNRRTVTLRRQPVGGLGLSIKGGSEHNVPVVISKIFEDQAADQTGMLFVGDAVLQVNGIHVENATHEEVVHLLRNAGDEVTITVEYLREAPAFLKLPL

In another assay the target is T7, GRIP1_4, Q9Y3R0.
T7 sequence (Q9Y3R0 467-571, limits assumed, looked up): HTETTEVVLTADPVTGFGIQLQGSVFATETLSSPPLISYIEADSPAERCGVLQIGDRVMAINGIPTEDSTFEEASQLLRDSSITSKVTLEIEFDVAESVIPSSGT

Another assay has as its target T8, GRIP1_2, Q9Y3R0.
T8 sequence (Q9Y3R0 145-248, limits assumed, looked up): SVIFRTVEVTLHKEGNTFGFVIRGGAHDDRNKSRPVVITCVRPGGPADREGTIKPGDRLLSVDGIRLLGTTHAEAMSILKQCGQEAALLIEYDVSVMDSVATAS

The next assay deals with T9, ARHGEF11, O15085.
T9 sequence (O15085 42-136, limits assumed, looked up): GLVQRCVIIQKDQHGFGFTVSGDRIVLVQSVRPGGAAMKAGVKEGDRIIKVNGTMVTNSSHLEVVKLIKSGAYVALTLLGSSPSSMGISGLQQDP

The target in another assay is T10, APBA1_2, Q02410.
T10 sequence (Q02410 742-832, limits assumed, looked up): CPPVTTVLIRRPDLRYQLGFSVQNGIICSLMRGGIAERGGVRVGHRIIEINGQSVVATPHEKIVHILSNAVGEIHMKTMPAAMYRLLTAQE

For the next assay, the target named is T11, DLG3_3, Q92796.
T11 sequence (Q92796 374-475, limits assumed, looked up): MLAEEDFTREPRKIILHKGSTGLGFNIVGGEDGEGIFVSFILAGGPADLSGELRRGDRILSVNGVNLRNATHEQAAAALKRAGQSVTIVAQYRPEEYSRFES

Another assay addresses T12, APBA2_2, Q99767.
T12 sequence (Q99767 654-744, limits assumed, looked up): T10 sequence (Q02410 742-832, limits assumed, looked up) with R10K, R15K, P59A, H65Q, I66A, A70S, Y84F, A89G

The target in a further assay is T13, PDZD7_3, Q9H5P4.
T13 sequence (Q9H5P4 857-944, limits assumed, looked up): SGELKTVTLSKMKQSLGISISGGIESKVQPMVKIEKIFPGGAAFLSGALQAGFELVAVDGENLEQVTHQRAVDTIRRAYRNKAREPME

A further assay deals with T14, MPP7, Q5T2T1.
T14 sequence (Q5T2T1 134-230, limits assumed, looked up): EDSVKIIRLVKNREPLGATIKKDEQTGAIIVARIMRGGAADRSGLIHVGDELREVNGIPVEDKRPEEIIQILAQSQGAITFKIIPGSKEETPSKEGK

[1] abbreviates: plain residues with an end cap or a label only (N-terminal biotin on a linker: ado-ado).
The mark [2] stands for this setting: plain residues with an end cap or a label only (N-terminal biotin on a linker: ahx).

Sequence of IL16_1, Q14005 (Q14005 210-306): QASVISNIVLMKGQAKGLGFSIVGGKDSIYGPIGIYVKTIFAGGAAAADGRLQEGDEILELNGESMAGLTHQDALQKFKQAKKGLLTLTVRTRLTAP
Sequence of GRID2IP_2, A4D2P6 (A4D2P6 272-370): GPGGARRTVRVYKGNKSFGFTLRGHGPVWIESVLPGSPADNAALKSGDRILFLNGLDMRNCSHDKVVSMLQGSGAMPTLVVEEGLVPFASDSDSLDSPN
Sequence of GRIP2_5, Q9C0E4 (Q9C0E4 544-642): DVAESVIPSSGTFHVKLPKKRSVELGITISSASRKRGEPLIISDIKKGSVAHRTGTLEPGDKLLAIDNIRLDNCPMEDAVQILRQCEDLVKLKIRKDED
Sequence of IL16_3, Q14005 (Q14005 1107-1207): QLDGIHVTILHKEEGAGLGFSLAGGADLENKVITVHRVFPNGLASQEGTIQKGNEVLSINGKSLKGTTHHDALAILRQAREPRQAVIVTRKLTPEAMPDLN
Sequence of DLG5_1, Q8TDM6 (Q8TDM6 617-713): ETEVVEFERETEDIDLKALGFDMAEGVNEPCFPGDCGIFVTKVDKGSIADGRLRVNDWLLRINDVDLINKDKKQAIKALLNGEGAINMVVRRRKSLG
Sequence of Inadl_4, Q8NI35 (Q8NI35 547-651): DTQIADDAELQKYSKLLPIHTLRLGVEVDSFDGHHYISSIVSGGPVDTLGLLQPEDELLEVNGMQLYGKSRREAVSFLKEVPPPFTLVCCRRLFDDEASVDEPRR
Sequence of NHERF2_2, Q15599 (Q15599 142-238): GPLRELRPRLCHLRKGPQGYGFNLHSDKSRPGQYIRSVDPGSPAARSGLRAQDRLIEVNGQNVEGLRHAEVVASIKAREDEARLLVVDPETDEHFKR
Sequence of PARD3_3, Q8TEW0 (Q8TEW0 582-685): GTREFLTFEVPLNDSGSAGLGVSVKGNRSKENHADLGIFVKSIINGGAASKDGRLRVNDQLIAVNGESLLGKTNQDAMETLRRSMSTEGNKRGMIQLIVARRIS
Sequence of MAST1, Q9Y2H9 (Q9Y2H9 962-1065): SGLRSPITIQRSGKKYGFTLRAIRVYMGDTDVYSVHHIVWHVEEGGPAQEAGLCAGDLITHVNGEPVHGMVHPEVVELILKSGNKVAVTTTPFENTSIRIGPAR

Regarding DFLSTFHIRI [CIB2, O75838], the pKd (in general, −log10 of the Kd, conventionally taken in molar units) with DFNB31_1, Q9P202 (setting [1]) was 3.55; with MPP6, Q9NZW5 (setting [1]) it was “below the threshold”; with HTRA4, P83105 (setting [1]), 3.91; with GRIP1_3, Q9Y3R0 (setting [1]) it was “below the threshold”; with MAST1, Q9Y2H9 (setting [1]), “below the threshold”; in the assay with APBA1_1, Q02410 (setting [1]), 4.08. The pKd was 3.62 with SNTG2, Q9NY99 (setting [1]); “below the threshold” with IL16_1, Q14005 (setting [1]); 3.9 with GRIP1_4, Q9Y3R0 (setting [1]); “below the threshold” with DLG5_1, Q8TDM6 (setting [1]); “below the threshold” with GRIP1_2, Q9Y3R0 (setting [1]); “below the threshold” with Inadl_4, Q8NI35 (setting [1]). Besides, the pKd with ARHGEF11, O15085 (setting [1]) was 3.64; with APBA1_2, Q02410 (setting [1]), “below the threshold”; in the assay with IL16_3, Q14005 (setting [1]), “below the threshold”; in the assay with NHERF2_2, Q15599 (setting [1]), “below the threshold”; with DLG2_3, Q15700 (setting [1]), “below the threshold”; in the assay with GRIP2_5, Q9C0E4 (setting [1]) it was “below the threshold”. The pKd entry with DLG3_3, Q92796 (setting [1]) was “below the threshold”; with PARD3_3, Q8TEW0 (setting [1]), 4.28; with APBA2_2, Q99767 (setting [1]) it was “below the threshold”; with GRID2IP_2, A4D2P6 (setting [1]), “below the threshold”; in the assay with PDZD7_3, Q9H5P4 (setting [1]) it was “below the threshold”; with MPP7, Q5T2T1 (setting [1]), 4.46.

For the molecule QPRTWLQSPV [RTKN, Q9BST9], the pKd in the assay with DFNB31_1, Q9P202 (setting [2]) is 4.35; with MPP6, Q9NZW5 (setting [2]), “below the threshold”; with HTRA4, P83105 (setting [2]) it was “below the threshold”; with GRIP1_3, Q9Y3R0 (setting [2]), “below the threshold”; in the assay with MAST1, Q9Y2H9 (setting [2]), 3.85; in the assay with APBA1_1, Q02410 (setting [2]) it was “below the threshold”. The pKd result is “below the threshold” with SNTG2, Q9NY99 (setting [2]); 3.95 in the assay with IL16_1, Q14005 (setting [2]); “below the threshold” in the assay with GRIP1_4, Q9Y3R0 (setting [2]); “below the threshold” in the assay with DLG5_1, Q8TDM6 (setting [2]); “below the threshold” with GRIP1_2, Q9Y3R0 (setting [2]); “below the threshold” with Inadl_4, Q8NI35 (setting [2]). The pKd result was “below the threshold” in the assay with ARHGEF11, O15085 (setting [2]); “below the threshold” with APBA1_2, Q02410 (setting [2]); “below the threshold” with IL16_3, Q14005 (setting [2]); “below the threshold” with NHERF2_2, Q15599 (setting [2]); 3.62 in the assay with DLG2_3, Q15700 (setting [2]); “below the threshold” with GRIP2_5, Q9C0E4 (setting [2]). Further, the pKd with DLG3_3, Q92796 (setting [2]) was 4.41; with PARD3_3, Q8TEW0 (setting [2]), “below the threshold”; with APBA2_2, Q99767 (setting [2]), “below the threshold”; with GRID2IP_2, A4D2P6 (setting [2]), “below the threshold”; in the assay with PDZD7_3, Q9H5P4 (setting [2]), “below the threshold”; with MPP7, Q5T2T1 (setting [2]) it was “below the threshold”.

In the case of EIPAQSPTCV [FZD10, Q9ULW2], the pKd was 3.67 in the assay with DFNB31_1, Q9P202 (setting [1]); “below the threshold” with MPP6, Q9NZW5 (setting [1]); 4.29 with HTRA4, P83105 (setting [1]); “below the threshold” with GRIP1_3, Q9Y3R0 (setting [1]); “below the threshold” with MAST1, Q9Y2H9 (setting [1]); “below the threshold” in the assay with APBA1_1, Q02410 (setting [1]). Besides, the pKd with SNTG2, Q9NY99 (setting [1]) was found to be 3.85; with IL16_1, Q14005 (setting [1]) it was 3.79; in the assay with GRIP1_4, Q9Y3R0 (setting [1]) it was 3.64; in the assay with DLG5_1, Q8TDM6 (setting [1]), 3.71; with GRIP1_2, Q9Y3R0 (setting [1]), 3.67; with Inadl_4, Q8NI35 (setting [1]), 3.64. Also, the pKd with ARHGEF11, O15085 (setting [1]) is 4.2; in the assay with APBA1_2, Q02410 (setting [1]), 4.77; with IL16_3, Q14005 (setting [1]), “below the threshold”; with NHERF2_2, Q15599 (setting [1]) it was 3.81; with DLG2_3, Q15700 (setting [1]) it was “below the threshold”; in the assay with GRIP2_5, Q9C0E4 (setting [1]) it was 3.7. The negative logarithm of the Kd (pKd) is 3.81 with DLG3_3, Q92796 (setting [1]); 3.65 in the assay with PARD3_3, Q8TEW0 (setting [1]); 3.63 with APBA2_2, Q99767 (setting [1]); 3.67 with GRID2IP_2, A4D2P6 (setting [1]); 4.3 in the assay with PDZD7_3, Q9H5P4 (setting [1]); “below the threshold” in the assay with MPP7, Q5T2T1 (setting [1]).

As for DPAESMESLV [PTPRG, P23470], the pKd entry in the assay with DFNB31_1, Q9P202 (setting [1]) is “below the threshold”; in the assay with MPP6, Q9NZW5 (setting [1]), “below the threshold”; with HTRA4, P83105 (setting [1]), 3.83; in the assay with GRIP1_3, Q9Y3R0 (setting [1]), “below the threshold”; with MAST1, Q9Y2H9 (setting [1]) it was 4.31; in the assay with APBA1_1, Q02410 (setting [1]), “below the threshold”. Besides, the pKd is 4.24 with SNTG2, Q9NY99 (setting [1]); 4.53 with IL16_1, Q14005 (setting [1]); “below the threshold” with GRIP1_4, Q9Y3R0 (setting [1]); “below the threshold” in the assay with DLG5_1, Q8TDM6 (setting [1]); “below the threshold” with GRIP1_2, Q9Y3R0 (setting [1]); “below the threshold” in the assay with Inadl_4, Q8NI35 (setting [1]). Besides, the pKd in the assay with ARHGEF11, O15085 (setting [1]) was 3.61; with APBA1_2, Q02410 (setting [1]) it was “below the threshold”; with IL16_3, Q14005 (setting [1]) it was “below the threshold”; in the assay with NHERF2_2, Q15599 (setting [1]), “below the threshold”; with DLG2_3, Q15700 (setting [1]) it was “below the threshold”; with GRIP2_5, Q9C0E4 (setting [1]) it was “below the threshold”. For the same molecule, the pKd result with DLG3_3, Q92796 (setting [1]) was “below the threshold”; with PARD3_3, Q8TEW0 (setting [1]), 3.93; with APBA2_2, Q99767 (setting [1]), “below the threshold”; in the assay with GRID2IP_2, A4D2P6 (setting [1]), “below the threshold”; in the assay with PDZD7_3, Q9H5P4 (setting [1]) it was 4.54; with MPP7, Q5T2T1 (setting [1]) it was “below the threshold”.
